A word on the EC50: it is the concentration at which the effect is half-maximal. A high value points to lower potency in that assay. One may read the koff as the rate constant with which the complex falls apart. Usually kon stands for the second-order rate constant of association.

The values that follow come from patent US20260132200A1 (Regeneron, published 2026).

Assay [1] deals with T1, human CD3 expressed on cells (Jurkat, a CD3+ human T-cell line; human T cells) (human, UniProt P07766 23-126; P04234 22-100).
T1 chain 1: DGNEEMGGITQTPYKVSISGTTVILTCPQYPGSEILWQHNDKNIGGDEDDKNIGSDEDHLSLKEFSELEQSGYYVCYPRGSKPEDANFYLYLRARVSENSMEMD
T1 chain 2: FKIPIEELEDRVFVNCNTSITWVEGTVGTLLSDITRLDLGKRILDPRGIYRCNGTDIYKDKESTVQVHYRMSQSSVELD
Nature of the assay: cell-based or functional assay.

Assay [2] has as its target T2, human CD20 expressed on Raji cells (CD3-, CD20+ human B-cell line) (human, UniProt P11836 1-297).
T2 sequence: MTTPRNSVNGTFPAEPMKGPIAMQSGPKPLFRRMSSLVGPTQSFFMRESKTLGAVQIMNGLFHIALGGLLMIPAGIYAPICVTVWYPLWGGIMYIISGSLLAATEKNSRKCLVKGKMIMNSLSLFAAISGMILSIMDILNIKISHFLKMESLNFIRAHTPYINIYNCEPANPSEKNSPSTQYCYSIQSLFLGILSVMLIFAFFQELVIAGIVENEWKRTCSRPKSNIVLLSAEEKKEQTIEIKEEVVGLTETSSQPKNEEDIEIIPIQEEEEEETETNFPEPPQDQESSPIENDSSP
The assay is described as follows: cell-based or functional assay.

Assay [3] addresses T2, human CD20 expressed on Raji cells …. The assay is described as follows: FACS on Raji cells. The procedure: (§1) CD20×CD3 bispecific antibodies and Control constructs, as set forth in Example 1, were tested via FACS for their ability to bind to Jurkat (CD3+, CD20− human T-cell line), Raji (CD3−, CD20+ Human B-cell line), or cynomolgus PBMCs (“mkT cells”).
(§2) FACS data was acquired using the following protocol: Cells at 2×10⁵ per well were incubated with serially diluted antibodies for 30 min on ice. Post incubation, cells were washed and appropriate secondary (Jurkat, RAJI cells) or cocktail of secondary antibodies (for cyno PBMC) was added and incubated for an additional 30 minutes. After incubation, cells were washed, re-suspended in cold PBS containing 1% BSA and analyzed by flow cytometry on a BD FACS Canto II. Jurkat and Raji cells were gated by side and forward scatters, while cynomolgus T cells were also gated in a CD2+CD4+ population. The EC₅₀s for cell binding titration were determined using Prism software with values calculated using a 4-parameter non-linear regression analysis.

Assay [4] addresses T1, human CD3 expressed on cells (Jurkat, a …). The assay is described as follows: FACS on Jurkat cells. As for the experimental part: as §1, §2
For assay [5] the target is unchanged. The assay is described as follows: cell-based or functional assay.
Assay [6] has as its target T2, human CD20 expressed on Raji cells …. Nature of the assay: cell-based or functional assay. This is another data set of the same source.
The target of assay [7] is T3, Soluble heterodimeric CD3 protein (hCD3-epsilon/hCD3-delta) with either a human Fc tag (hFcΔAdp/hFc) or a … (human, UniProt P07766 23-126; P04234 22-100).
T3 construct: Soluble construct; not shown: Fc tag: human (hFcΔAdp/hFc)
T3 chain 1: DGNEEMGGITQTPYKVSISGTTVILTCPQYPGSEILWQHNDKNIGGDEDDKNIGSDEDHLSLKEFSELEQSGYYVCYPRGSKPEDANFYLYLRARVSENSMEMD
T3 chain 2: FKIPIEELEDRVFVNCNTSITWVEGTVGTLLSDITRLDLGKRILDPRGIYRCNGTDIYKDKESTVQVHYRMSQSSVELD
Nature of the assay: SPR Biacore 25C antigen-capture. The procedure: Measurements were conducted on a T200 Biacore instrument.
In the antigen-capture format, heterodimeric CD3 protein was captured using a rabbit anti-mouse Fc or mouse anti-human Fc and the respective antibodies were injected over the captured antigen.
Kinetic association (kₐ) and dissociation (kd) rate constants were determined by processing and fitting the data to a 1:1 binding model using Scrubber 2.0 curve fitting software. Binding dissociation equilibrium constants (KD) and dissociative half-lives (t_{1/2}) were calculated from the kinetic rate constants as: KD (M)=kd/kₐ; and t_{1/2} (min) (ln 2/(60*kd). NT=not tested; NB=no binding observed.
A general note: SPR reads the build-up and loss of mass on a sensor chip optically.

Like-named read-outs stand apart in the source and are kept apart here.

B1: H1H5790B (antibody, human IgG1, V domains shown)
VH: EVQLVESGGGVVQPGRSLRLSCAASGFTFSYYGMHWVRQAPGKGLEWVAVISFDGKNKYYADSVMGRFTISRDNSKNTLYLQMNSLRAEDSAVFFCARSYDILTGYGAGYSYHYGMDVWGQGTTVTVSS
VL: AIQMTQSPSSLSASVGDRVTITCRASQRISSFLNWYQQKPGKAPKLLIYTASNLQNGVPSRFSGSGSGTDFTLTISSLQPEDFATYYCQQSYRTPLTFGGGTKVEIKR
For the molecule B1, the “U937 Cytotoxicity Human T-cells [M] (EC50)” value in assay [1] amounted to 8.71e-11 M.

B2: H1H5795B (antibody, human IgG1, V domains shown)
VH: EVQLVESGAEVKKPGASVKVSCKTSGYSFIGYYIHWMRQAPGQGLEWMGWINPKSGVTNYAQRFQGRVTMTRDTSISTAYMELSRLKSDDTAVYFCARMGDGAVFDFWGQGTLVTVSS
VL: DIQLTQSPSSLSASVGDRVTITCRASQRISSFLNWYQQKPGKVPKLLIYTASNLQNGVPSRFSGTGSGTDFTLTISSLQPEDFATYYCQQSYRTPLTFGGGTKVDIKR
With B2, the “U937 Cytotoxicity Human T-cells [M] (EC50)” value in assay [1] stood at 6.74e-11 M.

B3: H1H5801B (antibody, human IgG1, V domains shown)
VH: QVQLVQSGGGVVQPGGSLRLSCAASGFTFDDYAMHWVRQAPGKGLEWVSLISGDGGSTYYADSVKGRFTISRDNSKNSLYLQMNSLRTEDTALYYCAKDDSSSSWYYYYYGMDVWGRGTTVTVSS
VL: DIQMTQSPSSLSASVGDRVTITCRASQRISSYLNWYQQKPGKAPKVLISVASSLQSGVPSRFSGSGSGTDFTLTISSLQPEDFASYYCQQSYNTPLTFGGGTKVEIKR
On to B3, for which, in assay [1], the “U937 Cytotoxicity Human T-cells [M] (EC50)” value came out at 9.23e-11 M.

B4: H1H5798B (antibody, human IgG1, V domains shown)
VH: QVQLVQSGGGLVKPGGSLRLSCAASGFTFSSYDMSWVRQAPGKGLEWVSYISSSGNTIHYADSVKGRFTISRDNSKNSLYLQMNSLRAEDTAVYYCAKAGPATVTRRYYYYYGLDVWGQGTTVTVSS
VL: DIVMTQSPSSLSASVRDRVTITCRASQRISSYLNWFQQKPGKAPKVLIYTASSLQNGVPSRFSGSGSGTDFTLTISSLQPEDFATYYCQQSYRTPLTFGGGTKVEIKR
As for B4, the “U937 Cytotoxicity Human T-cells [M] (EC50)” value in assay [1] stood at 1.81e-10 M.

B5: H1H5792B (antibody, human IgG1, V domains shown)
VH: QVQLVESGGGVVQPGRSLRLSCAASGFTFSSYGMHWVRQAPGKGLEWVSTISFDGSNKYYADSVKGRFTISRDNSKNTLYLQMNSLRPEDTAVYYCAKGGGTSGSYFYYGMDVWGQGTTVTVSS
VL: AIQMTQSPSSLSASVGDRVTITCRASQRISSFLNWYQQKPGKAPKLLIYTASNLQNGVPSRFSGSGSGTDFTLTISSLQPEDFATYYCQQSYRTPLTFGGGTKLEIKR
Turning to B5, the “U937 Cytotoxicity Human T-cells [M] (EC50)” value in assay [1] was determined as 1.4e-10 M.

B6: H1H5793B (antibody, human IgG1, V domains shown)
VH: QVQLVQSGTEVKKPGASMKVSCKASGYTFTGYYIHWVRQAPGQGLEWMGWINPNSDVTKYAQKFQGRVTLTRDTSISAAYIDLSRLRSDDTAIYYCARMGDGAVFDYWGQGTLVTVSS
VL: DIQLTQSPSSLSASVGDRVTITCRASQRISSYLNWYQQKPGKAPKVLISVASSLQSGVPSRFSGSGFGTDFTLTISSLQPEDSASYYCQQSYNTPLTFGGGTKLEIKR
B6: the “U937 Cytotoxicity Human T-cells [M] (EC50)” value in assay [1] worked out at 8.85e-11 M.

B7: H1H5797B (antibody, human IgG1, V domains shown)
VH: QVQLVQSGTEVKKPGASVKVSCKASGYTFTGYYMHWVRQAPGQGLEWMGWINPNSDVTNYAQKFQGRVTLTRDTSISTAYIDLSRLRSDDTAIYYCARMGDGAVFDYWGQGTLVTVSS
VL: DIQMTQSPSSLSASVGDRVTITCRASQRISSYLNWYQQKPGKAPKVLISVASSLQSGVPSRFSGSGSGTDFTLTISSLQPEDFASYYCQQSYNTPLTFGGGTKVEIKR
As for B7, in assay [1], the “U937 Cytotoxicity Human T-cells [M] (EC50)” value is 5.76e-10 M.

B8: BS3/20-007 (bispecific antibody, V domains shown)
VH 1: EVQLVESGGGLVQPGRSLRLSCVASGFTFNDYAMHWVRQAPGKGLEWVSVISWNSDSIGYADSVKGRFTISRDNAKNSLYLQMHSLRAEDTALYYCAKDNHYGSGSYYYYQYGMDVWGQGTTVTVSS
VH 2: DVQLVQSGAEVKKPGASVKVSCKASGYTFTRYTMHWVRQAPGQGLEWIGYINPSRGYTNYADSVKGRFTITTDKSTSTAYMELSSLRSEDTATYYCARYYDDHYCLDYWGQGTTVTVSS
VL: DIVLTQSPATLSLSPGERATLSCRASQSVSYMNWYQQKPGKAPKRWIYDTSKVASGVPARFSGSGSGTDYSLTINSLEAEDAATYYCQQWSSNPLTFGGGTKVEIK
In the case of B8, in assay [2], the “CDC EC50, Raji” value is 2.62 nM; the “CDC EC50, Raji SCID1” value was determined as 101 nM; the “CDC EC50, Raji SCID2” value stood at 8.83 nM; the “CDC EC50, Raji SCID3” value is 37.7 nM. In addition, in assay [2], the “CDC EC50, Raji SCID4” value came to 140 nM; the “T-Cell Mediated Cytotoxicity EC50, Raji” value came to 0.00166 nM; the “T-Cell Mediated Cytotoxicity EC50, Raji SCID1” value was 0.00111 nM; the “T-Cell Mediated Cytotoxicity EC50, Raji SCID2” value came out at 0.000652 nM. Further, in assay [2], the “T-Cell Mediated Cytotoxicity EC50, Raji SCID3” value came to 0.000293 nM and the “T-Cell Mediated Cytotoxicity EC50, Raji SCID4” value was found to be 0.00153 nM.

B9: BS3/20-002 (bispecific antibody, V domains shown)
VH 1: EVQLVESGGGLVQPGRSLRLSCVASGFTFNDYAMHWVRQAPGKGLEWVSVISWNSDSIGYADSVKGRFTISRDNAKNSLYLQMHSLRAEDTALYYCAKDNHYGSGSYYYYQYGMDVWGQGTTVTVSS
VH 2: EVQLVESGGGLVQPGGSLRLSCAATGFTFDDFTMHWVRQAPGKGLEWVSGISWNSGSIGYVDSVKGRFTISRDNAKNSLYLQMNSLRAEDTALYYCAKDNSGYGYYYYGMDVWGQGTTVTVSS
VL: EIVMTQSPATLSVSPGERATLSCRASHSVSRNSAWYQQKPGQAPRLLIYGASTRATGIPARFSGSGSGTEFTLTISSLQSEDFAIYYCQQYNNWPLTFGGGTKVEIK
Turning to B9, the 50% effective concentration (EC50) was determined as 11.5 nM in assay [3] and 56.2 nM in assay [4]. The “U937 Cytotoxicity Human T-cells [M] (EC50)” value in assay [5] is 8.24e-10 M. For the same molecule, the “Raji Cytotoxicity Human T-cells [M] (EC50)” value in assay [6] was 7.71e-11 M.

B10: BS3/20-005 (bispecific antibody, V domains shown)
VH 1: EVQLVESGGGLVQPGRSLRLSCVASGFTFNDYAMHWVRQAPGKGLEWVSVISWNSDSIGYADSVKGRFTISRDNAKNSLYLQMHSLRAEDTALYYCAKDNHYGSGSYYYYQYGMDVWGQGTTVTVSS
VH 2: QVQLVESGGGVVQPGRSLRLACVASGFTFRSYGMHWVRQAPGKGLQWVAMIYYDGKNKYYADSVRGRFTISRDNSKNTLYLQMNNLRVEDTAMYFCARGPGYNWLDPWGQGTLVTVSS
VL: EIVMTQSPATLSVSPGERATLSCRASQRISSNLAWYQQKPGQAPRLLIYGASTRATGSPARFSGSGSGTDFTLTISSLQSEDVAVYYCQQHHNWPLTFGGGTKVEIK
B10 came in with an EC50 in assay [3] of 81.7 nM. Further, the “Raji Cytotoxicity Human T-cells [M] (EC50)” value in assay [6] stood at 1.95e-11 M.

B11: BS3/20-004 (bispecific antibody, V domains shown)
VH 1: EVQLVESGGGLVQPGRSLRLSCVASGFTFNDYAMHWVRQAPGKGLEWVSVISWNSDSIGYADSVKGRFTISRDNAKNSLYLQMHSLRAEDTALYYCAKDNHYGSGSYYYYQYGMDVWGQGTTVTVSS
VH 2: QVQLVESGGGVVQPGRSLRLSCAASGFTFRSYAMHWVRQAPGKGLEWVAMVYYDGNNQYYADSVRGRFTISRDNSKNTLYLQMNSLRADDTAVYFCARGPGYNWLDPWGQGTLVTVSS
VL: EIVMTQSPATLSVSPGERATLSCRASQSVSRNLAWYQQKPGQAPRLLIYGASTRATGIPARFSGSGSGTDFTLTISSLQSEDFAVYYCQQYNNWPLTFGGGTKVVIK
Turning to B11, the EC50 is 10.2 nM in assay [3] and 48.9 nM in assay [4]. Also, the “U937 Cytotoxicity Human T-cells [M] (EC50)” value in assay [5] was found to be 6.07e-11 M. For the same molecule, in assay [6], the “Raji Cytotoxicity Human T-cells [M] (EC50)” value worked out at 1.29e-11 M.

B12: H2M3547N (antibody, V domains shown)
VH: EAQLVESGGGLVQPGRSLRLSCTTSGFTFDDYTMHWVRQAPGKGLEWISDISWNGGTKGYADSVKGRFTISRDNAKNSLYLQMDSLRGEDTALYYCVKDKSGYGHFYFGLDVWGQGTTVTVSS
VL: DIQMTQSPSSLTASVGDRVTFTCRASQSISRHLSWYQQKPGKAPKLLIYAASSLESGVPSRFSGSGSGTDFTLTISSLHPEDFATYYCQQSYSNPPITFGQGTRLEIK
notes: mouse IgG2 Fc, human variable regions
With B12, in assay [7], the koff turned out to be 1e-05 s⁻¹ and the kon was found to be 470000 M⁻¹ s⁻¹.
